Details in all cases: modification not given
For experiment [1], the target named is LgTrip 3546 (with His tag; SEQ ID NO: 51). Put plainly: luminescence complementation.
For experiment [2] the target is unchanged. The experiment is described as follows: luminescence complementation. This is another data set of the same source.
The target is the same in experiment [3]. The experiment is described as follows: luminescence complementation. The source holds these as a separate data set.
Experiment [4] has the same target. The experiment is described as follows: luminescence complementation. This is another data set of the same source.
The target is the same in experiment [5]. Put plainly: luminescence complementation; SmTrip9 Kd.
Experiment [6] shares this target. Put plainly: luminescence complementation; SmTrip9 Kd. This is another data set of the same source.
For experiment [7] the target is unchanged.
Experiment [8] shares this target. This is another data set of the same source.
Experiment [9] has the same target. The experiment is described as follows: luminescence complementation; SmTrip9 Kd. The source holds these as a separate data set.
The target is the same in experiment [10]. The experiment is described as follows: luminescence complementation. The source holds these as a separate data set.
Experiment [11] shares this target. Put plainly: luminescence complementation; SmTrip9 Kd. This is another data set of the same source.
Experiment [12] has the same target. Put plainly: luminescence complementation; SmTrip9 Kd. This is another data set of the same source.
For experiment [13] the target is unchanged. This is another data set of the same source.
The target is the same in experiment [14]. Put plainly: luminescence complementation; SmTrip9 Kd. The source holds these as a separate data set.

Where two headings read alike, the source gives them in different places.

This is an account of results in patent publication US20200270586A1.

The term Kd denotes the equilibrium constant for the complex coming apart. A higher Kd goes with a looser complex.

Sequence of LgTrip 3546 (with His tag; SEQ ID NO: 51) (chain, as listed by the source): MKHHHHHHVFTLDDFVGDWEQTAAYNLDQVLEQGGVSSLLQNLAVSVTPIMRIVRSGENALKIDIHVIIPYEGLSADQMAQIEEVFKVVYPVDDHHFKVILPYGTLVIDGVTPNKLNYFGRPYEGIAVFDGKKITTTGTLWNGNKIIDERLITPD

In the case of GKMLFRVTINSYK [620], the Kd in experiment [1] amounted to 0.12 µM; in experiment [2], 0.19 µM.
Consider GKMLFRVTIGKWK [668], for which the Kd in [3] was found to be 0.06 µM; in [2], 0.13 µM.
GKMLFRVTIQKWK [671]: the values for the Kd in [2] and in experiment [4] were 0.06 µM and 0.02 µM, respectively.
DKLLFTVTIQKWK [756]: the results for the Kd in experiment [5] and in experiment [6] were 0.95 µM and 0.48 µM, respectively.
SSWKRGSMLFRVWINS [427] returned a Kd in [7] of 0.23 µM.
As for DKMLFRVTIEKWK [742], the Kd in experiment [2] was found to be 0.75 µM; in experiment [5], 1 µM.
For the molecule SSWKRMLFRVTINSVS [302], the equilibrium dissociation constant (Kd) in experiment [8] came to 0.52 µM.
As to DKLLFTVTIEKWK [758], the Kd was 0.19 µM in experiment [5] and 0.52 µM in experiment [9].
Turning to DKMLFTVTIGKWK [749], the Kd in experiment [2] stood at 1.7 µM; in experiment [5] it was 1.06 µM.
For the molecule GKMLFRVTIESWK [622], the Kd in experiment [10] was found to be 2.88 µM; in [2], 7.24 µM.
Turning to DKLLFTVTIQKYK [757], the Kd was determined as 0.19 µM in experiment [5] and 0.36 µM in experiment [11].
DKLLFTVTIEKYK [759]: the Kd in experiment [5] stood at 0.56 µM; in [12], 0.33 µM.
With DKMLFRVTIQKWK [738], the Kd in experiment [2] is 0.23 µM; in experiment [5], 0.11 µM.
Consider SSKRGSMLFRVTIWSV [428], for which the Kd in experiment [13] was 0.04 µM.
DKMLFTVTIQKWK [745]: the Kd in [2] was determined as 0.16 µM; in experiment [5], 0.2 µM; in experiment [14] it was 0.3 µM.
